# Data: patent US20160040149A1, “Compositions Having Dicamba Decarboxylase Activity and Methods of Use” (priority 2013, published 2016)
# Assay: DNA shuffling libraries: 14CO2 capturing assay in 384-well format, fold activity of backbone (Megatable 2)
# Details: relative to backbone SEQ ID NO: 380 (DDEC0301)
row,Molecule,Fold Activity
1,"487 (protein, Dicamba decarboxylase variant) MAQGKVALEEHFAIPETLNDAADFVPSEYWKELQHRLLDIQDQRLRLMDKHEIETMILSLAAPAVQAIGDRVKAIEIARRANDFLAEEVAKRPDRFLAFAALPMQDVDAATEELQRCVRDLGFVGAMVNGFSQEGDGQTPLYYDLPQYRPFWGEVEKLDVPFYLHPRNPLPQDSRIYDGHPWLLGPTWAFAQETAVHALRLMASGLFDEHPGLNIILGHLGEGLPYMMYRIDHRIAWVKAPPDYPAKRRFMDYFLENFHITTSGNFRTQTLIDAILEIGADRILFSTDWPFENIDHAADWFNATSIAEADRVKIGRTNARRLFKLDGR",1.1 fold
2,"499 (protein, Dicamba decarboxylase variant) MAQGKVALEEHFAIPETLNDAADFVPSEYWKELQHRLLDIQDQRLKLMDKHEIETMILSLAAPAVQSIPDRVKAIEIARRANDFLAEEVAKRPDRFLAFAALPLQDVDAATEELQRCVRDLGFVGAMVNGFSQEGDGQTPLYYDLPQYRPFWKEVEKLDVPFYLHPRNPLPQDSRIYDGHPWLLGPTWAFAQETAVHALRLMASGLFDEHPRLNIILGHLGEGLPYMMYRIDHRIAWVKAPPDYPAKRRFMDYFLENFHITTSGNFRTQTLIDAILEIGADRILFSTDWPFENIDHAAAWFNATSIAEADRVKIGRTNARRLFKLDGR",0.9 fold
3,"495 (protein, Dicamba decarboxylase variant) MAQGKVALEEHFAIPETLNDAAGFVPSEYWKELQHRLLDIQDTRLKLMDKHEIETMILSLAAPAVQAIPDRRKAIEIARRANDFLAEEVAKRPDRFLAFAALPLQDVDAATEELQRCVNDLGFVGAMVNGFSQEGDGQTPLYYDLPQYRPFWGEVEKLDVPFYLHPRNPLPQDSRIYDGHPWLLGPTWAFAQETAVHALRLMASGLFDEHPRLNIILGHMGEGLPYMMYRIDHRIAWVKAPPDYPAKRRFMDYFLENFHITTSGNFRTQTLIDAILEIGADRILFSTDWPFENIDHAADWFNATSIAEADRVKIGRTNARRLFKLDGR",2.2 fold
4,"489 (protein, Dicamba decarboxylase variant) MAQGKVALEEHFAIPETLNDAADFVPSEYWKELQHRLLDIQDQRLRLMDKHEIETMILSLAAPAVQSIPDRVKAIEIARRANDFLAEEVAKRPDRFLAFAALPMQDVDAATEELQRCVNDLGFVGAMVNGFSQEGDGQTPLYYDLPQYRPFWGEVEKLDVPFYLHPRNPLPQDSRIYDGHPWLLGPTWAFAQETAVHALRLMASGLFDEHPRLNIILGHLGEGLPYMMYRIDHRIAWVKAPPDYPAKRRFMDYFLENFHITTSGNFRTQTLIDAILEIGADRILFSTDWPFENIDHAADWFNATSIAEADRVKIGRTNARRLFKLDGR",1.4 fold
5,"488 (protein, Dicamba decarboxylase variant) MAQGKVALEEHFAIPETLNDAAGFVPSEYWKELQHRLLDIQDQRLRLMDKHEIGTMILSLAAPAVQSIGDRVKAIEIARRANDFLAEEVAKRPDRFLAFAALPLQDVDAATEELQRCVNDLGFVGAMVNGFSQEGDGQTPLYYDLPQYRPFWGEVEKLDVPFYLHPRNPLPQDSRIYDGHPWLLGPTWAFAQETAVHALRLMASGLFDEHPGLNIILGHLGEGLPYMMYRIDHRIAWVKAPPDYPAKRRFMDYFLENFHITTSGNFRTQTLIDAILEIGADRILFSTDWPFENIDHAADWFNATSIAEADRVKIGRTNARRLFKLDGR",1.4 fold
6,"490 (protein, Dicamba decarboxylase variant) MAQGKVALEEHFAIPETLNDAAGFVPSEYWKELQHRLLDIQDTRLKLMDKHEIGTMILSLAAPAVQAIPDRVKAIEIARRANDFLAEEVAKRPDRFLAFAALPLQDPDAATEELQRCVNDLGFVGAMVNGFSQEGDGQTPLYYDLPQYRPFWGEVEKLDVPFYLHPRNPLPQDSRIYDGHPWLLGPTWAFAQETAVHALRLMASGLFDEHPRLNIILGHMGEGLPYMMYRIDHRIAWVKAPPDYPAKRRFMDYFLENFHITTSGNFRTQTLIDAILEIGADRILFSTDWPFENIDHAADWFNATSIAEADRVKIGRTNARRLFKLDGR",2.2 fold
7,"494 (protein, Dicamba decarboxylase variant) MAQGKVALEEHFAIPETLNDAAGFVPSEYWKELQHRLLDIQDTRLKLMDKHEIETMILSLAAPAVQAIPDRVKAIEIARRANDFLAEEVAKRPDRFLAFAALPLQDVDAATEELQRCVNDLGFVGAMVNGFSQEGDGQTPLYYDLPQYRPFWGEVEKLDVPFYLHPRNPLPQDSRIYDGHPWLLGPTWAFAQETAVHALRLMASGLFDEHPRLNIILGHMGEGLPYMMYRIDHRIAWVKAPPDYPAKRRFMDYFLENFHITTSGNFRTQTLIDAILEIGADRILFSTDWPFENIDHAADWFNATSIAEADRVKIGRTNARRLFKLDGR",1.9 fold
8,"496 (protein, Dicamba decarboxylase variant) MAQGKVALEEHFAIPETLNDAADFVPSEYWKELQHRLLDIQDTRLKLMDKHEIETMILSLAAPAVQAIPDRRKAIEIARRANDFLAEEVAKRPDRFLAFAALPLQDVDAATEELQRCVNDLGFVGAMVNGFSQEGDGQTPLYYDLPQYRPFWGEVEKLDVPFYLHPRNPLPQDSRIYDGHPWLLGPTWAFAQETAVHALRLMASGLFDEHPRLNIILGHMGEGLPYMMYRIDHRIAWVKAPPDYPAKRRFMDYFLENFHITTSGNFRTQTLIDAILEIGADRILFSTDWPFENIDHAADWFNATSIAEADRVKIGRTNARRLFKLDGR",2.2 fold
9,"493 (protein, Dicamba decarboxylase variant) MAQGKVALEEHFAIPETLNDAAGFVPSEYWKELQHRLLDIQDTRLKLMDKHEIGTMILSLAAPAVQAIPDRVKAIEIARRANDFLAEEVAKRPDRFLAFAALPLQDVDAATEELQRCVNDLGFVGAMVNGFSQEGDGQTPLYYDLPQYRPFWGEVEKLDVPFYLHPRNPLPQDSRIYDGHPWLLGPTWAFAQETAVHALRLMASGLFDEHPRLNIILGHMGEGLPYMMYRIDHRIAWVKAPPDYPAKRRFMDYFLENFHITTSGNFRTQTLIDAILEIGADRILFSTDWPFENIDHAADWFNATSIAEADRVKIGRTNARRLFKLDGR",2.2 fold
10,"498 (protein, Dicamba decarboxylase variant) MAQGKVALEEHFAIPETLNDAADFVPSEYWKELQHRLLDIQDQRLRLMDKHEIETMILSLAAPAVQAIGDRVKAIEIARRANDFLAEEVAKRPDRFLAFAALPLQDVDAATEELQRCVRDLGFVGAMVNGFSQEGDGQTPLYYDLPQYRPFWKEVEKLDVPFYLHPRNPLPQDSRIYDGHPWLLGPTWAFAQETAVHALRLMASGLFDEHPGLNIILGHMGEGLPYMMYRIDHRIAWVKAPPDYPAKRRFMDYFLENFHITTSGNFRTQTLIDAILEIGADRILFSTDWPFENIDHAADWFNATSIAEADRVKIGRTNARRLFKLDGR",1.3 fold
11,"500 (protein, Dicamba decarboxylase variant) MAQGKVALEEHFAIPETLNDAAGFVPSEYWKELQHRLLDIQDQRLRLMDKHEIETMILSLAAPAVQAIGDRVKAIEIARRANDFLAEEVAKRPDRFLAFAALPMQDVDAATEELQRCVRDLGFVGAMVNGFSQEGDGQTPLYYDLPQYRPFWKEVEKLDVPFYLHPRNPLPQDSRIYDGHPWLLGPTWAFAQETAVHALRLMASGLFDEHPGLNIILGHLGEGLPYMMYRIDHRIAWVKAPPDYPAKRRFMDYFLENFHITTSGNFRTQTLIDAILEIGADRILFSTDWPFENIDHAAAWFNATSIAEADRVKIGRTNARRLFKLDGR",0.9 fold
12,"497 (protein, Dicamba decarboxylase variant) MAQGKVALEEHFAIPETLNDAADFVPSEYWKELQHRLLDIQDQRLRLMDKHEIETMILSLAAPAVQSIPDRVKAIEIARRANDFLAEEVAKRPDRFLAFAALPMQDVDAATEELQRCVNDLGFVGAMVNGFSQEGDGQTPLYYDLPQYRPFWKEVEKLDVPFYLHPRNPLPQDSRIYDGHPWLLGPTWAFAQETAVHALRLMASGLFDEHPGLNIILGHLGEGLPYMMYRIDHRIAWVKAPPDYPAKRRFMDYFLENFHITTSGNFRTQTLIDAILEIGADRILFSTDWPFENIDHAADWFNATSIAEADRVKIGRTNARRLFKLDGR",1.0 fold
13,"501 (protein, Dicamba decarboxylase variant) MAQGKVALEEHFAIPETLQDAADFVPSEYWKELQHRLLDIQDQRLKLMDKHEIETMILSLAAPAVQSIPDRVKAIEIARRANDFLAEEVAKRPDRFLAFAALPMQDVDAATEELQRCVRDLGFVGAMVNGFSQEGDGQTPLYYDLPQYRPFWKEVEKLDVPFYLHPRNPLPQDSRIYDGHPWLLGPTWAFAQETAVHALRLMASGLFDEHPGLNIILGHMGEGLPYMMYRIDHRIAWVKAPPDYPAKRRFMDYFLENFHITTSGNFRTQTLIDAILEIGADRILFSTDWPFENIDHAADWFNATSIAEADRVKIGRTNARRLFKLDGR",1.5 fold
14,"492 (protein, Dicamba decarboxylase variant) MAQGKVALEEHFAIPETLQDAADFVPSEYWKELQHRLLDIQDTRLKLMDKHEIETMILSLAAPAVQAIPDRVKAIEIARRANDFLAEEVAKRPDRFLAFAALPLQDVDAATEELQRCVNDLGFVGAMVNGFSQEGDGQTPLYYDLPQYRPFWGEVEKLDVPFYLHPRNPLPQDSRIYDGHPWLLGPTWAFAQETAVHALRLMASGLFDEHPRLNIILGHMGEGLPYMMYRIDHRIAWVKAPPDYPAKRRFMDYFLENFHITTSGNFRTQTLIDAILEIGADRILFSTDWPFENIDHAADWFNATSIAEADRVKIGRTNARRLFKLDGR",2.3 fold
15,"491 (protein, Dicamba decarboxylase variant) MAQGKVALEEHFAIPETLNDAAGFVPSEYWKELQHRLLDIQDTRLKLMDKHEIETMILSLAAPAVQAIPDRRKAIEIARRANDFLAEEVAKRPDRFLAFAALPLQDPDAATEELQRCVNDLGFVGAMVNGFSQEGDGQTPLYYDLPQYRPFWGEVEKLDVPFYLHPRNPLPQDSRIYDGHPWLLGPTWAFAQETAVHALRLMASGLFDVHPRLNIILGHMGEGLPYMMYRIDHRIAWVKAPPDYPAKRRFMDYFLENFHITTSGNFRTQTLIDAILEIGADRILFSTDWPFENIDHAADWFNATSIAEADRVKIGRTNARRLFKLDGR",2.1 fold
